Assay results as given in patent US20140087995A1 (published 2014).
Numbered stars: 1 amine (or outer) side, 2 acyl side, 3 side chain; on linkers, the order of the positions; unused ones are H or OH. Bridge positions count the residues as written; N and C are the ends. Side chains are listed from the residue outwards. Ends that are not written are not given here. * marks the point of attachment. C20 diacid = O=C(O)CCCCCCCCCCCCCCCCCCC(=O)*; γGlu = O=C(O)[C@H](CCC(=O)[*:2])N[*:1]

T1: human calcitonin receptor (human, UniProt P30988 25-474)
T1 sequence (looked up): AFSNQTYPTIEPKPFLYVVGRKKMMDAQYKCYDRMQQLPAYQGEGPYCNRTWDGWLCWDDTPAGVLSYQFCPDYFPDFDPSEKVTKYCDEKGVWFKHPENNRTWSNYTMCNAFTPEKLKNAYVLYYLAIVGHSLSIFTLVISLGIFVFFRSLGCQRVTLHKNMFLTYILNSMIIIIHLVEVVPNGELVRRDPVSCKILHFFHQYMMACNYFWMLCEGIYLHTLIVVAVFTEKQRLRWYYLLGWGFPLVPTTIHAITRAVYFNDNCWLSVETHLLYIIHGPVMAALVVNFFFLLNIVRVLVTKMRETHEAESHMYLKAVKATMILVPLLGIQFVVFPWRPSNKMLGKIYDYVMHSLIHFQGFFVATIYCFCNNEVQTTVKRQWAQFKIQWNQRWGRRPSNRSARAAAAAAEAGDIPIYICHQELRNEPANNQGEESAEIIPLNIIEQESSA

T2: human amylin receptor (amylin 3(a) receptor: human calcitonin receptor plus RAMP-3) (human, UniProt P30988 25-474; O60896 24-148, limits assumed)
T2 sequence (looked up) 1: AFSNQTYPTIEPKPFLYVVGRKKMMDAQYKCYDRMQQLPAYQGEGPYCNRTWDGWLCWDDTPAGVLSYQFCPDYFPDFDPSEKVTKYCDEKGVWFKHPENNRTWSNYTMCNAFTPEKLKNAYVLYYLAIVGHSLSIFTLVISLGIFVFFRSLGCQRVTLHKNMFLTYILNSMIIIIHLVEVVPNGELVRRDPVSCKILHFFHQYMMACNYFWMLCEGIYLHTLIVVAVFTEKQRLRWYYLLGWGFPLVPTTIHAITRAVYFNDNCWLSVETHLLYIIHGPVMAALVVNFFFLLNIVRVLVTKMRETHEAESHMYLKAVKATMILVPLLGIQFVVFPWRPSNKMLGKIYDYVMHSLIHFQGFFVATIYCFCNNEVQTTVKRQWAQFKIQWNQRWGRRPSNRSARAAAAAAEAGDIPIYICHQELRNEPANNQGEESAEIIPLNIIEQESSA
T2 sequence (looked up) 2: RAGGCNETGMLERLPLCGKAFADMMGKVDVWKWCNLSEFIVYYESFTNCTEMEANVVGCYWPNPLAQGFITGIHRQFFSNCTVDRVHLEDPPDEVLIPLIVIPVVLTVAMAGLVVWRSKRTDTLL

T3: human calcitonin receptor (human, UniProt P30988 25-474)
T3 construct: whole, on cells; membranes of stably transfected BHK cells (Assay VII); also called hCTR; hCT
T3 sequence (looked up): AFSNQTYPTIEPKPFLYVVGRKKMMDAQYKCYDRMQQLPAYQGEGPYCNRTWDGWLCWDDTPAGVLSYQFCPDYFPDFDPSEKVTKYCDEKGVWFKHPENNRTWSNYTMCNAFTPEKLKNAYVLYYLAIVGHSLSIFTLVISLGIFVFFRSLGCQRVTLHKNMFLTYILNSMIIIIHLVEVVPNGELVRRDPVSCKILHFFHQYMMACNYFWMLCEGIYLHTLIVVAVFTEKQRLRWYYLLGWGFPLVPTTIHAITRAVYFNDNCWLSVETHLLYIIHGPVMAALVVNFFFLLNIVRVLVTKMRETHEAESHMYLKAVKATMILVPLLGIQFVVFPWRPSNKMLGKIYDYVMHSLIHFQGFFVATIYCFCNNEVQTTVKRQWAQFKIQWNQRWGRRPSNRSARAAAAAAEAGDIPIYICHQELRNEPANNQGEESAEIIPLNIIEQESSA


Tests used:
[1] = target: T1, human calcitonin receptor; assay: cell-based or functional assay
[2] = target: T2, human amylin receptor (amylin 3(a) …); assay: cell-based or functional assay
[3] = target: T3, human calcitonin receptor; assay: IC50 on human calcitonin receptor divided by IC50 on human amylin receptor (SPA competition)
Protocol: The resulting pellet was resuspended, homogenized and centrifuged (20.000 rpm, 15 min) in a buffer containing 20 mM Na-HEPES and 0.1 mM EDTA (pH 7.4, buffer 2). The resulting pellet was resuspended in buffer 2 and protein concentration was measured (BCA protein Assay, Pierce). The homogenate was kept cold during the whole procedure. The membranes were kept at −80° C. until use. The assay was performed in a 384 well Optiplate (PerkinElmer) in a total volume of 40 ul. Membranes were mixed with SPA beads. Final concentration of membranes 35 ng/μL final and SPA beads was 0.05 mg/well. Test-compounds were dissolved in DMSO and further diluted in assay buffer (50 mM Hepes, pH 7.4, 1 mM CaCl2, 5 mM MgCl₂, 0.1% OA and 0.02% Tween20). […] The final mixture was incubated with shaking at 400 rpm for 120 min at 25° C. prior to centrifugation (1500 rpm, 10 min). Samples were analyzed on TopCounter™ (Packard). The IC₅₀ was calculated using (one site binding competition analysis) GraphPad Prism5 as a measure of receptor affinity.
Membranes were prepared in the following way; the cells were rinsed with PBS and incubated with Versene for approximately 5 min before harvesting. The cells were flushed with PBS and the cell-suspension was centrifuged for 5 min at 1000 rpm. Cells were homogenized (Ultrathurrax) in a buffer containing 20 mM Na-HEPES and 10 mM EDTA (pH 7.4) and centrifuged at 20.000 rpm for 15 min. The resulting pellet was resuspended, homogenized and centrifuged (20.000 rpm, 15 min) in a buffer containing 20 mM Na-HEPES and 0.1 mM EDTA (pH 7.4, buffer 2). The resulting pellet was resuspended in buffer 2 and protein concentration was measured (BCA protein Assay, Pierce). The homogenate was kept cold during the whole procedure. The membranes were kept at −80° C. until use. Assay was performed in a 384 well Optiplate (PerkinElmer) in a total volume of 40 ul. Membranes were mixed with SPA beads.

hCTR funct. EC50 [1]	Ratio hCT/hAmylin funct. [2]	hAmylin-R funct. EC50 [2]	Ratio hCT/hAmylin binding [3]	Binder
1.97 nM	17 ratio	0.116 nM		K([γGlu-C20 diacid])CNTATCATQRLANFLRHSSPNFGAIPSSTNVGSNTY-NH2 (disulfide 2-7; N-terminus assumed; SMILES CC[C@H](C)[C@H](NC(=O)[C@H](C)NC(=O)CNC(=O)[C@H](Cc1ccccc1)NC(=O)[C@H](CC(N)=O)NC(=O)[C@@H]1CCCN1C(=O)[C@H](CO)NC(=O)[C@H](CO)NC(=O)[C@H](Cc1c[nH]cn1)NC(=O)[C@H](CCCNC(=N)N)NC(=O)[C@H](CC(C)C)NC(=O)[C@H](Cc1ccccc1)NC(=O)[C@H](CC(N)=O)NC(=O)[C@H](C)NC(=O)[C@H](CC(C)C)NC(=O)[C@H](CCCNC(=N)N)NC(=O)[C@H](CCC(N)=O)NC(=O)[C@@H](NC(=O)[C@H](C)NC(=O)[C@@H]1CSSC[C@H](NC(=O)[C@@H](N)CCCCNC(=O)CC[C@H](NC(=O)CCCCCCCCCCCCCCCCCCC(=O)O)C(=O)O)C(=O)N[C@@H](CC(N)=O)C(=O)N[C@@H]([C@@H](C)O)C(=O)N[C@@H](C)C(=O)N[C@@H]([C@@H](C)O)C(=O)N1)[C@@H](C)O)C(=O)N1CCC[C@H]1C(=O)N[C@@H](CO)C(=O)N[C@@H](CO)C(=O)N[C@H](C(=O)N[C@@H](CC(N)=O)C(=O)N[C@H](C(=O)NCC(=O)N[C@@H](CO)C(=O)N[C@@H](CC(N)=O)C(=O)N[C@H](C(=O)N[C@@H](Cc1ccc(O)cc1)C(N)=O)[C@@H](C)O)C(C)C)[C@@H](C)O, Synthetic acylated analogue of human amylin; also called compound 48) [N^ε1-[(4S)-4-carboxy-4-(19-carboxynonadecanoylamino)butanoyl]-[Arg17,Pro21,Pro27]-h-amylin]
			26	{C20 diacid-γGlu-γGlu}-KCNTATCATQRLAEFLRHSSPNFGAIPSSTNVGSNTY-NH2 (disulfide 2-7 (inferred), analogue of human amylin; the name is printed with N^α1 twice; also called compound 15)
4.75 nM	24 ratio	0.198 nM		K([γGlu-C20 diacid])RCNTATCATQRLANFLRHSSPNFGAIPSSTNVGSHTY-NH2 (disulfide 3-8; N-terminus assumed; SMILES CC[C@H](C)[C@H](NC(=O)[C@H](C)NC(=O)CNC(=O)[C@H](Cc1ccccc1)NC(=O)[C@H](CC(N)=O)NC(=O)[C@@H]1CCCN1C(=O)[C@H](CO)NC(=O)[C@H](CO)NC(=O)[C@H](Cc1c[nH]cn1)NC(=O)[C@H](CCCNC(=N)N)NC(=O)[C@H](CC(C)C)NC(=O)[C@H](Cc1ccccc1)NC(=O)[C@H](CC(N)=O)NC(=O)[C@H](C)NC(=O)[C@H](CC(C)C)NC(=O)[C@H](CCCNC(=N)N)NC(=O)[C@H](CCC(N)=O)NC(=O)[C@@H](NC(=O)[C@H](C)NC(=O)[C@@H]1CSSC[C@H](NC(=O)[C@H](CCCNC(=N)N)NC(=O)[C@@H](N)CCCCNC(=O)CC[C@H](NC(=O)CCCCCCCCCCCCCCCCCCC(=O)O)C(=O)O)C(=O)N[C@@H](CC(N)=O)C(=O)N[C@@H]([C@@H](C)O)C(=O)N[C@@H](C)C(=O)N[C@@H]([C@@H](C)O)C(=O)N1)[C@@H](C)O)C(=O)N1CCC[C@H]1C(=O)N[C@@H](CO)C(=O)N[C@@H](CO)C(=O)N[C@H](C(=O)N[C@@H](CC(N)=O)C(=O)N[C@H](C(=O)NCC(=O)N[C@@H](CO)C(=O)N[C@@H](Cc1c[nH]cn1)C(=O)N[C@H](C(=O)N[C@@H](Cc1ccc(O)cc1)C(N)=O)[C@@H](C)O)C(C)C)[C@@H](C)O, Synthetic acylated analogue of human amylin, extended by Lys at the N-terminus; also called compound 44)
